We go through 41 sequences from the nanobody polyreactivity screen of Harvey et al. (2022).

This data set in a line: yeast display, Sf9 membrane polyspecificity reagent, FACS + sequencing; frameworks hold sequencing errors. In a few lines:
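Using colony PCR, genes from sorted yeast display clones were amplified, then sequenced on MiSeq at 2 × 250 and filtered by CDR length. The clones had been stained with 10% biotinylated, detergent-solubilized Sf9 membrane reagent for 1 hour at 4 °C and sorted by FACS into low and high (top ~1%) gates on anti-HA and streptavidin fluorescence. Polyreactivity labels come from the gate of origin.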
Take “QVQLVESGGGLVQAGGSLRLSCAASGFTFYRNAMGWYRQAPGKERELVAAISRGGRTYYADSVKGRFTISRDNAKNTVYLQMNSLKQEDTAVYYCAADFYIKYSEFDYWGQGTQVTVSS”: the “polyreactivity (PSR sort gate)” value is on record as “high polyreactivity”. With “QVQLVESGGGLVQAGGSLRLSCAASGFTFYRNAMGWYRQAPGKERELVAAITRRGGSTYYADSVKGRFTISRDNAKNTVYLQMISLKPEDTAVYYCSKSYRFPSVGPPGELDYWGQGTQVTVSS”, the “polyreactivity (PSR sort gate)” value is listed as “high polyreactivity”. For “QVQLVESGGGLVQAGGSLRLSCAASGFTFYRNDIGWYRQAPGKERELVAAITFSGGITYYADSVKGRFTISRDNAKNTVYLQMNSLKAEDTAVYYCAAEGVGAARVYQGGEYNYWGQGTQVTVSS” the value was “low polyreactivity”; for “QVQLVESGGGLVQAGGSLRLSCAASGFTFYRNTMGWYRQAPGKERELVARIRSVGSTYYADSVKGRFTISRDNAKNTVFLQMNSLKREDTAVYYCAAGPVYDWRGGALRYYYWGQGTQVTVSS”, “high polyreactivity”; for “QVQLVESGGGLVQAGGSLRLSCAASGFTFYRYAMGWYRQAPGKERELVAAISWSGGTTYYADSVKGRFTISRDNAKNTVYLQMNSLKPEDTAVYYCNARFIARSGYKVDYDYWGQGTQVTVSS”, “high polyreactivity”. On to “QVQLVESGGGLVQAGGSLRLSCAASGFTFYRYAMGWYRQAPGKERELVAAITRTGSTYYADSVKGRFTISRDNAKNTVYLQMNSLKPEDTAVYYCARRSLYFPSYGLYYWGQGTQVTVSS”, for which the “polyreactivity (PSR sort gate)” value is on record as “high polyreactivity”. With “QVQLVESGGGLVQAGGSLRLSCAASGFTFYRYAMGWYRQAPGKERELVAAITSRGTSTYYADSVKGRFTISRDNAKNTVYLQMNSLKPEDTAVYYCAVKGYRYGTRYDYWGQGTQVTVSS”, the “polyreactivity (PSR sort gate)” value is “high polyreactivity”.

“QVQLVESGGGLVQAGGSLRLSCAASGFTFYRYAMGWYRQAPGKERELVAAITSRSGITYYADSVKGRFTISRDNAKNTVYLQMNSLKPEDTAVYYCGAYVSRSTEFDYGYWGQGTQVTVSS”: the “polyreactivity (PSR sort gate)” value is “high polyreactivity”. In the case of “QVQLVESGGGLVQAGGSLRLSCAASGFTFYRYGMGWYRPPPGKERELVAAINNDGTTNYADSVKGRFTISRDNAKNTVYLQLNSLKPEDTAVYYCAADYYRGRYSYRYDYWGQGTQVTVSS”, the “polyreactivity (PSR sort gate)” value was “low polyreactivity”. For the sequence “QVQLVESGGGLVQAGGSLRLSCAASGFTFYRYTMGWSRQAPGKERELVAAISARGVSTYYADSVKGRFTISRDNAKNTVYLQMNCLKPEDTAVYYCYVSRYDSWGQGTQVTVSS”, the “polyreactivity (PSR sort gate)” value was “high polyreactivity”. As for “QVQLVESGGGLVQAGGSLRLSCAASGFTFYSNAMGWYRQAPGKERELVAAISFSGTRTYYADSVKGRFTISRDNAKNTVYLQMNSLKPEDTAVYYCNAVAYNYPRTYDYWGQGTQVTVSS”, the “polyreactivity (PSR sort gate)” value is recorded as “high polyreactivity”. As to “QVQLVESGGGLVQAGGSLRLSCAASGFTFYSNDMGWYRQAPGKERELVAAISYSGGSTYYADSVKGRFTISRDNAKNTVYLQMKRLNPEDTAVYYCAAGGLQQGDYWGQGTQVTVSS”, the “polyreactivity (PSR sort gate)” value is listed as “low polyreactivity”. Regarding “QVQLVESGGGLVQAGGSLRLSCAASGFTFYSYAMGWYRQAPGKERELVAAISWSGTRTYYADSVKGRFTISRDNGKNTVYLQMTSLKPEVTAVYYCAGRGYRYGYGYWGQGTQVTVSS”, the “polyreactivity (PSR sort gate)” value is reported as “high polyreactivity”. Turning to “QVQLVESGGGLVQAGGSLRLSCAASGFTFYSYAMGWYRQAPGKERELVATISSGGRTYYADSVKGRFTISRDNAKNTVYLQMNSLKPEDTAVYYCAARWRPHPFAPPGYYSWGQGTQVTVSS”, the “polyreactivity (PSR sort gate)” value is “high polyreactivity”. As to “QVQLVESGGGLVQAGGSLRLSCAASGFTFYTNAMGWYRQAPGHERELVARISRRGGSTYYADSVKGRFTISRDNAKNTVYLQMNSLKPEDTAVYYCNADGRAAVQYDYWGQGTQVTVSS”, the “polyreactivity (PSR sort gate)” value is “high polyreactivity”.

On to “QVQLVESGGGLVQAGGSLRLSCAASGFTFYTNAMGWYRQAPGKERELVAAISKRGASTYYADSVKGRFTISRDNAKNTVYLQMNSLKPEDTAVYYCAASSRTHGSYDYWGQGTQVTVSS”, for which the “polyreactivity (PSR sort gate)” value was “high polyreactivity”. With “QVQLVESGGGLVQAGGSLRLSCAASGFTFYTNAMGWYRQAPGKERELVAAITKSDGSTYYADSVKGRFTISRDNAKNTVYLQMNSLKPEDTAVYYCATERRYPYYGGIVIYDYWGQGTQVTVSS”, the “polyreactivity (PSR sort gate)” value is on record as “low polyreactivity”.

With “QVQLVESGGGLVQAGGSLRLSCAASGFTFYTYAMGWYRQAPGKEMELVADISSGGSTNYADSVKGRFTISRDNAKNTVYLQMNSLKPEDTAVYYCSADYYFLDWYDYWGQGTQVTVSS”, the “polyreactivity (PSR sort gate)” value is reported as “low polyreactivity”.

Consider “QVQLVESGGGLVQAGGSLRLSCAASGFTFYVNAMGWYRQATGKERELVAAISSRGGSTYYADSVKGRFTISRDNAKNTVYLQMNSLKPEDTAVYYCNRVRDQRRYEYWGQGTQVTVSS”, for which the “polyreactivity (PSR sort gate)” value is “high polyreactivity”. Regarding “QVQLVESGGGLVQAGGSLRLSCAASGFTFYVYARGWYRQAPGKERQLVAAISRSGGSTYYADSVKGSFTISRDNAKNTVYLQMQSLKPEDTAVYYCAVVQRYWYPGIVPYDYWGQGSQVTVSS”, the “polyreactivity (PSR sort gate)” value is on record as “high polyreactivity”. For “QVQLVESGGGLVQAGGSLRLSCAASGFTFYWYDMGWYRQAPGKEWELVATMSPGGGTNYADSVKGRFTISRDNAKNTVSLQMNSLKPEDTSVYYCAADGSAGYQWGYDFEGDYWGQGTQLTVSS” the value was “high polyreactivity”. Consider “QVQLVESGGGLVQAGGSLRLSCAASGFTFYYAMGWYRQAPGKERELVAAISSSGARTYYADSVKGRFTISRDNAKYTVYLQMNSLKPEDTAVYYCAARRYYKFYYWGQGTQVTVSS”, for which the “polyreactivity (PSR sort gate)” value was “high polyreactivity”. Turning to “QVQLVESGGGLVQAGGSLRLSCAASGFTFYYNAMGWYRQAPGKERELVASIRSGGSTKYADSVKGRFTISRDNAKNTVYLQMNSLKPEDTAVYYCAKERYHISFFYQMVYWGQGTQVTVSS”, the “polyreactivity (PSR sort gate)” value is recorded as “low polyreactivity”. Consider “QVQLVESGGGLVQAGGSLRLSCAASGFTFYYNAMGWYRQAPGKERELVASISSNGTSTYYADSVKGRFTISRDNAMNTVYLQMNSLKPEDTAVYYCNVDIFDPRTYDYWGQGTQVTVSS”, for which the “polyreactivity (PSR sort gate)” value was “low polyreactivity”. Regarding “QVQLVESGGGLVQAGGSLRLSCAASGFTFYYNAMGWYRQAPGKERELVASISSNGTSTYYADSVKGRFTISRDNAMYTVYLQMNSLKPEDTAGYYCAADDVCVYWSSTHNWARGDYWGQGSQVTVSS”, the “polyreactivity (PSR sort gate)” value is given as “low polyreactivity”. Regarding “QVQLVESGGGLVQAGGSLRLSCAASGFTFYYYAMGWYRQAPGKERELVAAINWSGGTTYYADSVKGRFTISRDNAKNTVYLQMNSLKPEDTAVYYCAVSVFTVAPYRRYDYWGQGTQVTVSS”, the “polyreactivity (PSR sort gate)” value is “high polyreactivity”. With “QVQLVESGGGLVQAGGSLRLSCAASGFTFYYYAMGWYRQAPGKERELVAAISIGGSTYYAGSVKGRFTISRHNEKNTVYLQMNSLKPEDTAVYYCNVVFTYWPPGTARYDYSGQGTQVTVSS”, the “polyreactivity (PSR sort gate)” value is recorded as “high polyreactivity”.

In the case of “QVQLVESGGGLVQAGGSLRLSCAASGFTFYYYAMGWYRQAPGKERELVAAISSSGGSTSYADSVKGRFTISRDNAKNTVYLQMNSLKPEDTAVYYCAAVYWQSGRGKMCYWGQGTQVTVSS”, the “polyreactivity (PSR sort gate)” value is listed as “high polyreactivity”. Consider “QVQLVESGGGLVQAGGSLRLSCAASGFTFYYYAMGWYRQAPGKESELVAAITWSGDITSYADSVKGRFTISRDNAKNTVYLQMNSLKPEDTAVYYCAAYVYVPGYNAAYDYWGQGTQVTVSS”, for which the “polyreactivity (PSR sort gate)” value is given as “low polyreactivity”.

Consider “QVQLVESGGGLVQAGGSLRLSCAASGFTFYYYMGCYRQAPGKERELVAAITSGDTTYYADSVKGRFTISRDNAKNTVYLQMNSLKPEDTAVYYCNVDQAIYRWVPWEMDYWGQGTQVTVSS”, for which the “polyreactivity (PSR sort gate)” value is reported as “low polyreactivity”. On to “QVQLVESGGGLVQAGGSLRLSCAASGFTIAYNAMGWYRQAPGKERDLVAAISSSGGRTYYADSVKGRFTISRDNAKNTVYFQMNSLKPEDTAVYYCATRPKVAYEYVYWGQGTQVTVSS”, for which the “polyreactivity (PSR sort gate)” value is “high polyreactivity”. For “QVQLVESGGGLVQAGGSLRLSCAASGFTIDGYAMGWYRQAPGKERELVAAIRRGGRTKYADSVKGRFTISRDNAKNTVYLQMNSLKPEDTAVYYCAADRSRRGHLTHGYWGQGTQVTVSS” the value was “high polyreactivity”; for “QVQLVESGGGLVQAGGSLRLSCAASGFTIFEDNAMGSYRQAPGKERELVAAITSGGSTNYADSVKGRFTISRDNAKNTVYLQMNSLKPEDTAVYYCAYDRVPLKTRFYYFPWGYDYWGQGTQVTVSS”, “low polyreactivity”; for “QVQLVESGGGLVQAGGSLRLSCAASGFTIFLNAMGWYRQAPGKERELVAAITVSGSSTYYADSVKGRFTISRDNAKNTVYLQMNSLKPEDTAVYYCNAEIYSPYYTYDYWGQGTQVTVSS”, “low polyreactivity”. Turning to “QVQLVESGGGLVQAGGSLRLSCAASGFTILRYAMGWDRQAPGTERELVAAIDWSGGSTYYADSVKGRFTISRDNAKNTVYLQMNSLKPEDTAVYYCNARTINVPSRFNYWGQGTQVTVSS”, the “polyreactivity (PSR sort gate)” value is listed as “low polyreactivity”. Take “QVQLVESGGGLVQAGGSLRLSCAASGFTIRRNAMGWYRQAPGKERELVAAISRSGGSTYADSVKGRFTISRDNAKNTVYLQMNSLKPEDTAVYYFASDHSYYRYTYTALIAEFYYWGQGTQVTVSS”: the “polyreactivity (PSR sort gate)” value is on record as “low polyreactivity”. As for “QVQLVESGGGLVQAGGSLRLSCAASGFTIRRYAMGWYRQAPGKERELVAAITTGGSTYYADSVKGRFTISRDNAKNTVYLQMNSLKPEDTAVYYCATDTYPYPLYYSPGAYGYWGQGTQVTVSS”, the “polyreactivity (PSR sort gate)” value is “high polyreactivity”. Consider “QVQLVESGGGLVQAGGSLRLSCAASGFTIRSYVMGWYRQAPGKERELVAAIRRSGGSTYYADSVKGRFTISRDNAKNTVYVQLNSLKPEDTAFYYCNAPHHRYDWGQGTQVTVSS”, for which the “polyreactivity (PSR sort gate)” value is recorded as “high polyreactivity”. On to “QVQLVESGGGLVQAGGSLRLSCAASGFTIRWYTMGWYRQAPGKERELVAAISRGGSTNYADSVKGRFTISRDNAKNTVYLQMNSLKPEDTAVYYCATSAPLVTSSGYGYWGQGTQVTVSS”, for which the “polyreactivity (PSR sort gate)” value is reported as “high polyreactivity”. As to “QVQLVESGGGLVQAGGSLRLSCAASGFTISAYAMGWYRQAPGKERQLVASISRGGITNYADSVKGRFTISRDNAKNTVYLQMTSLKPEETAVYYCAAETRNHGILYDYWGQGTQVTVSS”, the “polyreactivity (PSR sort gate)” value is given as “high polyreactivity”.

In the case of “QVQLVESGGGLVQAGGSLRLSCAASGFTISKYAMGWYRQAPGKERELVAVISSGGRTNYADSVKGRFTISRDNAKNTVYLQMNSLKPEDTAVDYCAAIGWRTRSRFEYWGQGTQVTVSS”, the “polyreactivity (PSR sort gate)” value is reported as “high polyreactivity”.
